Assay results published in patent US20260193326A1 (published 2026).

Tests used:
Assay in all cases: SPR, AAV on CM5 chip;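 note: surface plasmon resonance with AAV amine-coupled to the chip as ligand, nanobodies injected as analyte over a concentration series, rate constants and affinity fitted from binding curves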
[1] = target: T1, AAV8
T1 construct: also called adeno-associated virus serotype 8
Method: (§1) AAV was amine-coupled to a CM5 sensor chip at a density of 500-800 response units (RU). Nanobodies were injected at seven concentrations (1-100 nM) with a flow rate of 45 μL/min, and chip regeneration was performed using glycine-HCl (pH 1.5). Binding curves at different nanobody concentrations were used to calculate kinetic parameters (Kₐ, Kd, KD) (Table 2 and FIG. 2).

[2] = target: T2, AAV9
T2 construct: also called adeno-associated virus serotype 9
Method: as §1

[3] = target: T3, AAV5
T3 construct: also called adeno-associated virus serotype 5
Method: as §1

Row | Binder | Kd [1] [nM] | koff [1] [s⁻¹] | kon [1] [M⁻¹ s⁻¹] | Kd [2] [nM] | koff [2] [s⁻¹] | kon [2] [M⁻¹ s⁻¹] | Kd [3] [nM] | koff [3] [s⁻¹] | kon [3] [M⁻¹ s⁻¹]
1 | A4-047 (VHH) VHH: VQLQESGGGLVQPGGSLRLSCAASGSRFSINTMGWYRQAPGKQRELVATVTRGGSTNYAGSVKGRFTISRDNAKNTVYLQMNSLRPEDTAVYYCHVDEVRQSSWTTSNLWGQGTQVTVSS | 0.104 | 2e-05 | 193000 | 29.1 | 0.00147 | 50500 | 7.79 | 0.00144 | 185000
2 | A4-007 (VHH) VHH: VQLQESGGGLVQAGGSLRLSCAASGRHFSINTMGWYRQAPGKQRELVAAVTRGGSTNYAGSVKGRFTISRDNAKNTVYLQMNSLRPEDTAVYYCHIDEVRQSSWTTSNIWGQGTQVTVSS | 47.4 | 0.00367 | 77300 | 6.43 | 0.00089 | 138000 | 1260 | 0.0248 | 19700
3 | A4-003 (VHH) VHH: VQLQESGGGLVQPGGSLRLSCVASGRSFSINTMGWYRQAPGKQRELVAAVTRGGSTNYAGSVKGRFTISRDNAKNTVYLQMNSLRPEDTAVYYCHIDEVRQSSWTTSNIWGQGTQVTVSS | 1.2 | 0.000277 | 232000 | 184 | 0.00152 | 8240 | 8.24 | 0.00019 | 23100
4 | A4-002 (VHH) VHH: VQLQESGGGLVQPGGSLRLSCAASGRSFSINTMGWYRQAPGKQRELVAAVTRGGSTNYAGSVKGRFTISRDNAKNTVYLQMNSLRPEDTAVYYCHIDEVRQSSWTTSNIWGQGTQVTVSS | 57.7 | 0.00618 | 107000 | 232 | 0.011 | 47500 | 138 | 0.00063 | 4570
5 | A4-008 (VHH) VHH: VQLQESGGGLVQAGGSLRLSCAASGRAFSINTMGWYRQAPPKQRELVATVTRGGSTNYAGSVKGRFTISRDNAKNTIYLQMNSLRPEDTAVYYCHVDEVRQSSWTTSNIWGQGTQVTVSS | 523 | 0.00164 | 3140 | 14.5 | 0.00012 | 8270 | 66 | 0.0174 | 264000
6 | A4-006 (VHH) VHH: VQLQESGGGLVQPGGSLRLSCAASGRHFSINTMGWYRQAPGKQRELVAAVTRGGSTNYAGSVKGRFTISRDNAKNTVYLQMNSLRPEDTAVYYCHIDEVRQSSWTTSNIWGQGTQVTVSS | 5.87 | 0.00224 | 381000 | 192 | 0.0244 | 127000 | 1.78 | 0.00032 | 179000
7 | A4-004 (VHH) VHH: VQLQESGGGLVQPGGSLRLSCAASGSRFSINTMGWYRQAPGKQRELVAAVTRGGSTNYAGSVKGRFTISRDNAKNTVYLQMNSLRPEDTAVYYCHIDEVRQSSWTTSNIWGQGTQVTVSS | 1.71 | 0.000286 | 167000 | 4.51 | 0.00081 | 180000 | 37.5 | 0.00678 | 181000
8 | A4-005 (VHH) VHH: VQLQESGGGLVQAGGSLRLSCAASGRHFSINTMGWYRQAPGKQRELVAAVTRGGGTNYAGSVKGRFTISRDNAKNTVYLQMNSLRPEDTAVYYCHIDEVRQSSWTTSNIWGQGTQVTVSS | 4.39 | 0.00197 | 449000 | 88.5 | 0.021 | 237000 | 1860 | 0.00193 | –
